Laboratory results reported in IntAct's records for PubMed 25500191.

B1: Pleckstrin homology domain-containing family M member 1 (Homo sapiens), Q9Y4G2 (parent)
chain: MLSVVENGLDPQAAIPVIKKKLVGSVKALQKQYVSLDTVVTSEDGDANTMCSALEAVFIHGLHAKHIRAEAGGKRKKSAHQKPLPQPVFWPLLKAVTHKHIISELEHLTFVNTDVGRCRAWLRLALNDGLMECYLKLLLQEQARLHEYYQPTALLRDAEEGEFLLSFLQGLTSLSFELSYKSAILNEWTLTPLALSGLCPLSELDPLSTSGAELQRKESLDSISHSSGSEDIEVHHSGHKIRRNQKLTASSLSLDTASSSQLSCSLNSDSCLLQENGSKSPDHCEEPMSCDSDLGTANAEDSDRSLQEVLLEFSKAQVNSVPTNGLSQETEIPTPQASLSLHGLNTSTYLHCEAPAEPLPAQAASGTQDGVHVQEPRPQAPSPLDLQQPVESTSGQQPSSTVSETAREVGQGNGLQKAQAHDGAGLKLVVSSPTSPKNKSWISEDDFYRPSREQPLESASDHPIASYRGTPGSRPGLHRHFSQEPRKNCSLGALDQACVPSPGRRQAQAAPSQGHKSFRVVHRRQMGLSNPFRGLMKLGTVERRGAMGIWKELFCELSPLEFRLYLSNEEHTCVENCSLLRCESVGPAHSDGRFELVFSGKKLALRASSQDEAEDWLDRVREALQKVRPQQEDEWVNVQYPDQPEEPPEAPQGCLSPSDLLSEPAALQGTQFDWSSAQVPEPDAIKESLLYLYMDRTWMPYIFSLSLEALKCFRIRNNEKMLSDSHGVETIRDILPDTSLGGPSFFKIITAKAVLKLQAGNAEEAALWRDLVRKVLASYLETAEEAVTLGGSLDENCQEVLKFATRENGFLLQYLVAIPMEKGLDSQGCFCAGCSRQIGFSFVRPKLCAFSGLYYCDICHQDDASVIPARIIHNWDLTKRPICRQALKFLTQIRAQPLINLQMVNASLYEHVERMHLIGRRREQLKLLGDYLGLCRSGALKELSKRLNHRNYLLESPHRFSVADLQQIADGVYEGFLKALIEFASQHVYHCDLCTQRGFICQICQHHDIIFPFEFDTTVRCAECKTVFHQSCQAVVKKGCPRCARRRKYQEQNIFA

Variants of: B1
Conditions: with rab7a_canlf RAB7A

effect of a mutation on the interaction	Variant
with no effect	E729A
with no effect	R769A
